Experimental data as given in patent publication US20100113355A1.

Columns and labels:
[1] = target: T1, Biotin-… antigenic peptide (epitope sequence from candidal Hsp90) (Candida ("candidal Hsp90")); assay: ELISA, biotinylated hsp90 peptide on streptavidin plate, anti-His-HRP detection; % activity against Mycograb reference standard; site 2; sample in 0.5 M urea, 0.2 M L-arginine pH 9.5
[2] = target: T1, Biotin-… antigenic peptide (epitope …); assay: ELISA, biotinylated hsp90 peptide on streptavidin plate, anti-His-HRP detection; % activity against Mycograb reference standard; site 2; sample in 50 mM Tris, 1 M sucrose, ~0.2% Tween20, 3 mM DTT, pH 3.0
[3] = target: T1, Biotin-… antigenic peptide (epitope …); assay: ELISA, biotinylated hsp90 peptide on streptavidin plate, anti-His-HRP detection; % activity against Mycograb reference standard; site 1; sample in 0.5 M urea, 0.2 M L-arginine pH 9.5
[4] = target: T1, Biotin-… antigenic peptide (epitope …); assay: ELISA, biotinylated hsp90 peptide on streptavidin plate, anti-His-HRP detection; % activity against Mycograb reference standard; site 1; sample in 50 mM Tris, pH 9.0
[5] = target: T1, Biotin-… antigenic peptide (epitope …); assay: ELISA, biotinylated hsp90 peptide on streptavidin plate, anti-His-HRP detection; % activity against Mycograb reference standard; site 1; sample in 50 mM Tris, 3 mM DTT, pH 9.0
[6] = target: T1, Biotin-… antigenic peptide (epitope …); assay: ELISA, biotinylated hsp90 peptide on streptavidin plate, anti-His-HRP detection; % activity against Mycograb reference standard; site 2; sample in 50 mM Tris, 3 mM DTT, pH 9.0
[7] = target: T1, Biotin-… antigenic peptide (epitope …); assay: ELISA, biotinylated hsp90 peptide on streptavidin plate, anti-His-HRP detection; % activity against Mycograb reference standard; site 2; sample in 50 mM Tris, pH 9.0
[8] = target: T1, Biotin-… antigenic peptide (epitope …); assay: ELISA, biotinylated hsp90 peptide on streptavidin plate, anti-His-HRP detection; % activity against Mycograb reference standard; site 1; sample in 50 mM Tris, 1 M sucrose, ~0.2% Tween20, 3 mM DTT, pH 3.0

B1: MYC123 ("wild type" Mycograb) scFv peptide (scFv)
scFv: MAEVQLVESGAEVKKPGESLRISCKGSGCIISSYWISWVRQMPGKGLEWMGKIDPGDSYINYSPSFQGHVTISADKSINTAYLQWNSLKASDTAMYYCARGGRDFGDSFDYWGQGTLVTVSSGGGGSGGGGSGGGGSDVVMTQSPSFLSAFVGDRITITCRASSGISRYLAWYQQAPGKAPKLLIYAASTLQTGVPSRFSGSGSGTEFTLTINSLQPEDFATYYCQHLNSYPLTFGGGTKVDIKRAAALEHHHHHH
[1]
  ELISA Site 2 [%] (activity compared with the reference): 78%
[2]
  ELISA Site 2 [%] (activity compared with the reference): 130%
[3]
  ELISA Site 1 [%] (activity compared with the reference): 90%
[4]
  ELISA Site 1 [%] (activity compared with the reference): 71%
[5]
  ELISA Site 1 [%] (activity compared with the reference): 85%
[6]
  ELISA Site 2 [%] (activity compared with the reference): 131%
[7]
  ELISA Site 2 [%] (activity compared with the reference): 95%
[8]
  ELISA Site 1 [%] (activity compared with the reference): 135%
